# Laboratory results: patent publication US6946130 (GlaxoSmithKline, dated 2005)
# B1: recombinant Fab containing the 2B6 heavy and light chains (Fd fused to hexa-His) (Fab)
# heavy (part 1 of 2): QVQLKESGPGLVAPSQSLSITCTVSGFSLTSYSVHWVRQPPGKGLEWLGVIWASGGTDYNSALMSRLSISKDNSKSQVFLKLNSLQTDDTAMYYCARDPPSSLLRLDYWGQGTTLTVSS
# heavy (part 2 of 2): HHHHHH
# light: DIVMTQSPSSLSVSAGEKVTMSCKSSQSLLNSGNQKNYLAWYQQKPGQPPKLLIYGASTRESGVPDRFTGSGSGTDFTLSISSVQAEDLAVYYCQNVHSFPFTFGSGTELEIK
# notes: Expressed in E. coli from pMKFabGene3H after removal of gene III; also called Fab fragment from 2B6; 2B6 Fab; not shown: murine CH1 (rest of the 2B6 Fd); murine kappa constant region
# What was measured:
# [1] = target: T1, human interleukin 5 (recombinant human IL-5, expressed in Drosophila Schneider 2 cells) (human, UniProt P05113 20-134); assay: optical biosensor
# T1 construct: also called hIL-5
# [2] = target: T1, human interleukin 5 (recombinant human …); assay: IL-5R alpha binding inhibition assay (125I-IL-5, Drosophila membranes)
# Description: Assays with *Drosophila* membranes containing receptor were performed in MultiscreenGV™ plates (Millipore Corp., Bedford, Mass.) using *Drosophila* tissue culture medium M3 (Lindquist et al., *Drosophila Inf. Serv.*, 58: 163 (1982)) containing 25 mM HEPES buffer pH 7.2 and 0.1% BSA (Binding Buffer). Wells were pre-blocked with 0.1 ml binding buffer. […] After 20 minutes incubation at room temperature, 25 ul of the membrane extract of *Drosophila* S2 cells expressing the α-chain of the human IL5R was added to the wells. After 1 hour further incubation the membranes were collected by vacuum filtration and washed 3× with binding buffer. Filters were dried and counted.
# The Fd and κ cDNAs of mAb (2B6) were isolated by PCR using the conditions described above. The gel-purified fragments were subcloned into the pMKFabGene3 vector which had been modified to include the hexa-His sequence 3' of the gene III cDNA, resulting in the plasmid pMKFabGene3H. A functional, IL-5 binding Fab clone containing the 2B6 heavy and light chains was identified by a colony lift assay. Upon removal gene III via Nhe I/SpeI I digestion and self-ligation the heavy chain was fused in frame to the hexa-His, allowing purification as described above.
binder,measurement,setting,value
B1,Kd,[1],~0.09 nM
same,IC50,[2],~7.5 µg/mL
